# In patent US20230002480A1:
# What was measured:
# Experiment in all cases: cell-based or functional assay
# [1] = target: HIV-1 Env of pseudovirus 0260.v5.c36 (HIV-1)
# [2] = target: HIV-1 Env of pseudovirus 1054_07_TC4_1499 (HIV-1)
# [3] = target: HIV-1 Env of pseudovirus 249M B10 (HIV-1)
# [4] = target: HIV-1 Env of pseudovirus 62357_14_D3_4589 (HIV-1)
# [5] = target: HIV-1 Env of pseudovirus 6244_13_B5_4576 (HIV-1)
# [6] = target: HIV-1 Env of pseudovirus 6535.3 (HIV-1)
# [7] = target: HIV-1 Env of pseudovirus AC10.0.29 (HIV-1)
# [8] = target: HIV-1 Env of pseudovirus BF1266.431a (HIV-1)
# [9] = target: HIV-1 Env of pseudovirus CAP210.2.00.E8 (HIV-1)
# [10] = target: HIV-1 Env of pseudovirus CAP45.2.00.G3 (HIV-1)
# [11] = target: HIV-1 Env of pseudovirus CNE17 (HIV-1)
# [12] = target: HIV-1 Env of pseudovirus CNE19 (HIV-1)
# [13] = target: HIV-1 Env of pseudovirus CNE20 (HIV-1)
# [14] = target: HIV-1 Env of pseudovirus CNE30 (HIV-1)
# [15] = target: HIV-1 Env of pseudovirus CNE52 (HIV-1)
# [16] = target: HIV-1 Env of pseudovirus CNE53 (HIV-1)
# [17] = target: HIV-1 Env of pseudovirus CNE58 (HIV-1)
# [18] = target: HIV-1 Env of pseudovirus Ce1086_B2 (HIV-1)
# [19] = target: HIV-1 Env of pseudovirus Du172.17 (HIV-1)
# [20] = target: HIV-1 Env of pseudovirus HIV-16845-2.22 (HIV-1)
# [21] = target: HIV-1 Env of pseudovirus Q461.e2 (HIV-1)
# [22] = target: HIV-1 Env of pseudovirus Q842.d12 (HIV-1)
# [23] = target: HIV-1 Env of pseudovirus TRO.11 (HIV-1)
# [24] = target: HIV-1 Env of pseudovirus WEAU_d15_410_787 (HIV-1)
# [25] = target: HIV-1 Env of pseudovirus ZM135M.PL10a (HIV-1)
# [26] = target: HIV-1 Env of pseudovirus ZM247v1(Rev-) (HIV-1)
substance,measurement,setting,value
PG9 (antibody),"IC50, titer in TZM.bl cells",[1],1.69 µg/mL
same,"IC80, titer in TZM.bl cells",[1],9 µg/mL
same,"IC50, titer in TZM.bl cells",[2],> 50 µg/mL
same,"IC80, titer in TZM.bl cells",[2],> 50 µg/mL
same,"IC50, titer in TZM.bl cells",[3],0.095 µg/mL
same,"IC80, titer in TZM.bl cells",[3],0.29 µg/mL
same,"IC50, titer in TZM.bl cells",[4],> 50 µg/mL
same,"IC80, titer in TZM.bl cells",[4],> 50 µg/mL
same,"IC50, titer in TZM.bl cells",[5],> 50 µg/mL
same,"IC80, titer in TZM.bl cells",[5],> 50 µg/mL
same,"IC50, titer in TZM.bl cells",[6],0.176 µg/mL
same,"IC80, titer in TZM.bl cells",[6],0.627 µg/mL
same,"IC50, titer in TZM.bl cells",[7],0.117 µg/mL
same,"IC80, titer in TZM.bl cells",[7],0.845 µg/mL
same,"IC50, titer in TZM.bl cells",[8],0.026 µg/mL
same,"IC80, titer in TZM.bl cells",[8],0.088 µg/mL
same,"IC50, titer in TZM.bl cells",[9],0.04 µg/mL
same,"IC80, titer in TZM.bl cells",[9],0.173 µg/mL
same,"IC50, titer in TZM.bl cells",[10],0.007 µg/mL
same,"IC80, titer in TZM.bl cells",[10],0.029 µg/mL
same,"IC50, titer in TZM.bl cells",[11],0.21 µg/mL
same,"IC80, titer in TZM.bl cells",[11],0.484 µg/mL
same,"IC50, titer in TZM.bl cells",[12],0.024 µg/mL
same,"IC80, titer in TZM.bl cells",[12],0.146 µg/mL
same,"IC50, titer in TZM.bl cells",[13],0.052 µg/mL
same,"IC80, titer in TZM.bl cells",[13],0.278 µg/mL
same,"IC50, titer in TZM.bl cells",[14],> 50 µg/mL
same,"IC80, titer in TZM.bl cells",[14],> 50 µg/mL
same,"IC50, titer in TZM.bl cells",[15],0.029 µg/mL
same,"IC80, titer in TZM.bl cells",[15],0.081 µg/mL
same,"IC50, titer in TZM.bl cells",[16],0.131 µg/mL
same,"IC80, titer in TZM.bl cells",[16],0.6 µg/mL
same,"IC50, titer in TZM.bl cells",[17],0.038 µg/mL
same,"IC80, titer in TZM.bl cells",[17],0.122 µg/mL
same,"IC50, titer in TZM.bl cells",[18],> 50 µg/mL
same,"IC80, titer in TZM.bl cells",[18],> 50 µg/mL
same,"IC50, titer in TZM.bl cells",[19],0.606 µg/mL
same,"IC80, titer in TZM.bl cells",[19],1.6 µg/mL
same,"IC50, titer in TZM.bl cells",[20],4.4 µg/mL
same,"IC80, titer in TZM.bl cells",[20],> 50 µg/mL
same,"IC50, titer in TZM.bl cells",[21],1.48 µg/mL
same,"IC80, titer in TZM.bl cells",[21],8.72 µg/mL
same,"IC50, titer in TZM.bl cells",[22],0.023 µg/mL
same,"IC80, titer in TZM.bl cells",[22],0.081 µg/mL
same,"IC50, titer in TZM.bl cells",[23],43.2 µg/mL
same,"IC80, titer in TZM.bl cells",[23],> 50 µg/mL
same,"IC50, titer in TZM.bl cells",[24],4.08 µg/mL
same,"IC80, titer in TZM.bl cells",[24],> 50 µg/mL
same,"IC50, titer in TZM.bl cells",[25],20.6 µg/mL
same,"IC80, titer in TZM.bl cells",[25],> 50 µg/mL
same,"IC50, titer in TZM.bl cells",[26],0.112 µg/mL
same,"IC80, titer in TZM.bl cells",[26],0.323 µg/mL
10-1074 (antibody),"IC50, titer in TZM.bl cells",[1],0.099 µg/mL
same,"IC80, titer in TZM.bl cells",[1],0.16 µg/mL
same,"IC50, titer in TZM.bl cells",[2],0.129 µg/mL
same,"IC80, titer in TZM.bl cells",[2],0.563 µg/mL
same,"IC50, titer in TZM.bl cells",[3],> 50 µg/mL
same,"IC80, titer in TZM.bl cells",[3],> 50 µg/mL
same,"IC50, titer in TZM.bl cells",[4],> 50 µg/mL
same,"IC80, titer in TZM.bl cells",[4],> 50 µg/mL
same,"IC50, titer in TZM.bl cells",[5],0.202 µg/mL
same,"IC80, titer in TZM.bl cells",[5],0.922 µg/mL
same,"IC50, titer in TZM.bl cells",[6],0.014 µg/mL
same,"IC80, titer in TZM.bl cells",[6],0.026 µg/mL
same,"IC50, titer in TZM.bl cells",[7],0.022 µg/mL
same,"IC80, titer in TZM.bl cells",[7],0.11 µg/mL
same,"IC50, titer in TZM.bl cells",[8],> 50 µg/mL
same,"IC80, titer in TZM.bl cells",[8],> 50 µg/mL
same,"IC50, titer in TZM.bl cells",[9],> 50 µg/mL
same,"IC80, titer in TZM.bl cells",[9],> 50 µg/mL
same,"IC50, titer in TZM.bl cells",[10],> 50 µg/mL
same,"IC80, titer in TZM.bl cells",[10],> 50 µg/mL
same,"IC50, titer in TZM.bl cells",[11],2.69 µg/mL
same,"IC80, titer in TZM.bl cells",[11],13.3 µg/mL
same,"IC50, titer in TZM.bl cells",[12],50 µg/mL
same,"IC80, titer in TZM.bl cells",[12],> 50 µg/mL
same,"IC50, titer in TZM.bl cells",[13],< 0.001 µg/mL
same,"IC80, titer in TZM.bl cells",[13],0.005 µg/mL
same,"IC50, titer in TZM.bl cells",[14],0.363 µg/mL
same,"IC80, titer in TZM.bl cells",[14],1.2 µg/mL
same,"IC50, titer in TZM.bl cells",[15],1.23 µg/mL
same,"IC80, titer in TZM.bl cells",[15],13.1 µg/mL
same,"IC50, titer in TZM.bl cells",[16],0.039 µg/mL
same,"IC80, titer in TZM.bl cells",[16],0.141 µg/mL
same,"IC50, titer in TZM.bl cells",[17],0.267 µg/mL
same,"IC80, titer in TZM.bl cells",[17],0.968 µg/mL
same,"IC50, titer in TZM.bl cells",[18],> 50 µg/mL
same,"IC80, titer in TZM.bl cells",[18],> 50 µg/mL
same,"IC50, titer in TZM.bl cells",[19],0.121 µg/mL
same,"IC80, titer in TZM.bl cells",[19],0.43 µg/mL
same,"IC50, titer in TZM.bl cells",[20],1.17 µg/mL
same,"IC80, titer in TZM.bl cells",[20],5.83 µg/mL
same,"IC50, titer in TZM.bl cells",[21],> 50 µg/mL
same,"IC80, titer in TZM.bl cells",[21],> 50 µg/mL
same,"IC50, titer in TZM.bl cells",[22],> 50 µg/mL
same,"IC80, titer in TZM.bl cells",[22],> 50 µg/mL
same,"IC50, titer in TZM.bl cells",[23],0.008 µg/mL
same,"IC80, titer in TZM.bl cells",[23],0.057 µg/mL
same,"IC50, titer in TZM.bl cells",[24],0.104 µg/mL
same,"IC80, titer in TZM.bl cells",[24],0.375 µg/mL
same,"IC50, titer in TZM.bl cells",[25],0.069 µg/mL
same,"IC80, titer in TZM.bl cells",[25],0.367 µg/mL
same,"IC50, titer in TZM.bl cells",[26],0.042 µg/mL
same,"IC80, titer in TZM.bl cells",[26],0.186 µg/mL
